This passage reports Kd results from US20240083945A1 (Bicycle, published 2024).

B1: BCY16569 (peptide)
peptide: ACNAWFCDGRFYMCA
modifications: Ci, Cii and Ciii cysteines covalently bound to TBCU scaffold
B2: BCY17641 (peptide)
peptide: ACSIGYCPVTDTFCA
modifications: Ci, Cii and Ciii cysteines covalently bound to TBMT scaffold
B3: BCY16567 (peptide)
peptide: ACPQTYCFINNRYCA
modifications: Ci, Cii and Ciii cysteines covalently bound to TBMT scaffold
B4: BCY18983 (peptide)
peptide: ACTTDFCNNRYVVNQCQEQS
modifications: Ci, Cii and Ciii cysteines covalently bound to TBMT scaffold
B5: BCY17624 (peptide)
peptide: ACWTDFCNNRYIVNTCA
modifications: Ci, Cii and Ciii cysteines covalently bound to TBMT scaffold
B6: BCY16582 (peptide)
peptide: ACPVRIEYPICDTSICA
modifications: Ci, Cii and Ciii cysteines covalently bound to TBMT scaffold
B7: BCY16573 (peptide)
peptide: ACFRGYCPQTNLFCA
modifications: Ci, Cii and Ciii cysteines covalently bound to TBMT scaffold
B8: BCY18973 (peptide)
peptide: ACTTDFCNNRYVVNQCSYPR
modifications: Ci, Cii and Ciii cysteines covalently bound to TBMT scaffold
B9: BCY18985 (peptide)
peptide: LEQICVTDFCNNRYVVNRCA
modifications: Ci, Cii and Ciii cysteines covalently bound to TBMT scaffold
B10: BCY16563 (peptide)
peptide: ACKTYCFMENRYSLSCA
modifications: Ci, Cii and Ciii cysteines covalently bound to TBMT scaffold
B11: BCY17631 (peptide)
peptide: ACTTDFCNDRYIINPCA
modifications: Ci, Cii and Ciii cysteines covalently bound to TBMT scaffold
B12: BCY17627 (peptide)
peptide: ACEGDFCDGRYIVNTCA
modifications: Ci, Cii and Ciii cysteines covalently bound to TBMT scaffold
B13: BCY18971 (peptide)
peptide: ACTTDFCNNRYVVNRCGSDN
modifications: Ci, Cii and Ciii cysteines covalently bound to TBMT scaffold
B14: BCY17637 (peptide)
peptide: ACSRGYCPRTNTFCA
modifications: Ci, Cii and Ciii cysteines covalently bound to TBMT scaffold
B15: BCY17639 (peptide)
peptide: ACTKGYCPLTDMFCA
modifications: Ci, Cii and Ciii cysteines covalently bound to TBMT scaffold
B16: BCY18984 (peptide)
peptide: MPTSCVTDFCNNRYVVNRCA
modifications: Ci, Cii and Ciii cysteines covalently bound to TBMT scaffold
B17: BCY18970 (peptide)
peptide: ACTTDFCNNRYVVNRCEALE
modifications: Ci, Cii and Ciii cysteines covalently bound to TBMT scaffold
B18: BCY16581 (peptide)
peptide: ACHTPDWSDFCAGRYCA
modifications: Ci, Cii and Ciii cysteines covalently bound to TBCU scaffold
B19: BCY16566 (peptide)
peptide: ACTSYFCNNRFTLNTCA
modifications: Ci, Cii and Ciii cysteines covalently bound to TBMT scaffold
B20: BCY16564 (peptide)
peptide: ACQYTFCENRYKICA
modifications: Ci, Cii and Ciii cysteines covalently bound to TATA scaffold
B21: BCY16565 (peptide)
peptide: ACSEGWCFRENRYQVCA
modifications: Ci, Cii and Ciii cysteines covalently bound to TATA scaffold
B22: BCY17638 (peptide)
peptide: ACYVGYCPATDTFCA
modifications: Ci, Cii and Ciii cysteines covalently bound to TBMT scaffold
B23: BCY18986 (peptide)
peptide: HSLICVTDFCNNRYVVNRCA
modifications: Ci, Cii and Ciii cysteines covalently bound to TBMT scaffold
B24: BCY18974 (peptide)
peptide: AYTDCTTDFCNNRYVVNRCA
modifications: Ci, Cii and Ciii cysteines covalently bound to TBMT scaffold
B25: BCY18978 (peptide)
peptide: RRAVCTTDFCNNRYVVNRCDDYH
modifications: Ci, Cii and Ciii cysteines covalently bound to TBMT scaffold
B26: BCY17630 (peptide)
peptide: ACTTDFCNDRYIVNSCA
modifications: Ci, Cii and Ciii cysteines covalently bound to TBMT scaffold
B27: BCY17640 (peptide)
peptide: ACKRGYCPVTDTFCA
modifications: Ci, Cii and Ciii cysteines covalently bound to TBMT scaffold
B28: BCY16570 (peptide)
peptide: ACTTDFCNSRYIVNTCA
modifications: Ci, Cii and Ciii cysteines covalently bound to TBMT scaffold
B29: BCY16574 (peptide)
peptide: ACNTWCMDNDRIYFNCA
modifications: Ci, Cii and Ciii cysteines covalently bound to TBMT scaffold
B30: BCY17628 (peptide)
peptide: ACTTDFCNNRYVVNRCA
modifications: Ci, Cii and Ciii cysteines covalently bound to TBMT scaffold
B31: BCY20264 (peptide)
peptide: ACWTDFCNNRYVVNRCA
modifications: N-terminal acetyl (Ac); Ci, Cii and Ciii cysteines covalently bound to TBMT scaffold
B32: BCY17632 (peptide)
peptide: ACTTDFCNDRYITELCA
modifications: Ci, Cii and Ciii cysteines covalently bound to TBMT scaffold
B33: BCY18979 (peptide)
peptide: QYESCTTDFCNNRYVVNRCGSDN
modifications: Ci, Cii and Ciii cysteines covalently bound to TBMT scaffold
B34: BCY17626 (peptide)
peptide: ACDGNFCDNRYIVNTCA
modifications: Ci, Cii and Ciii cysteines covalently bound to TBMT scaffold
B35: BCY17636 (peptide)
peptide: ACDGNFCDNRYVVNRCA
modifications: Ci, Cii and Ciii cysteines covalently bound to TBMT scaffold
B36: BCY18972 (peptide)
peptide: ACTTDFCNNRYVVNRCDDYH
modifications: Ci, Cii and Ciii cysteines covalently bound to TBMT scaffold
B37: BCY18976 (peptide)
peptide: RRAVCTTDFCNNRYVVNRCA
modifications: Ci, Cii and Ciii cysteines covalently bound to TBMT scaffold
B38: BCY16572 (peptide)
peptide: ACSVGYCPLTNTFCA
modifications: Ci, Cii and Ciii cysteines covalently bound to TBMT scaffold
B39: BCY18982 (peptide)
peptide: ACTTDFCNNRYVVNLCQNKS
modifications: Ci, Cii and Ciii cysteines covalently bound to TBMT scaffold
B40: BCY16571 (peptide)
peptide: ACIVGYCPATDDFCA
modifications: Ci, Cii and Ciii cysteines covalently bound to TBMT scaffold
B41: BCY18975 (peptide)
peptide: QYESCTTDFCNNRYVVNRCA
modifications: Ci, Cii and Ciii cysteines covalently bound to TBMT scaffold
B42: BCY20266 (peptide)
peptide: ACMQNPCRWVNIPCA
modifications: N-terminal acetyl (Ac); Ci, Cii and Ciii cysteines covalently bound to TATA scaffold
B43: BCY17625 (peptide)
peptide: ACNGDFCNNRYIVNTCA
modifications: Ci, Cii and Ciii cysteines covalently bound to TBMT scaffold
B44: BCY20263 (peptide)
peptide: ACTTDFCNNRYVVNRCA
modifications: N-terminal acetyl (Ac); Ci, Cii and Ciii cysteines covalently bound to TBMT scaffold
B45: BCY17635 (peptide)
peptide: ACDGNFCDNRYVTQRCA
modifications: Ci, Cii and Ciii cysteines covalently bound to TBMT scaffold
B46: BCY17629 (peptide)
peptide: ACTTDFCNNRYVTQRCA
modifications: Ci, Cii and Ciii cysteines covalently bound to TBMT scaffold
B47: BCY17634 (peptide)
peptide: ACWTDFCNNRYVTQRCA
modifications: Ci, Cii and Ciii cysteines covalently bound to TBMT scaffold
B48: BCY18977 (peptide)
peptide: EKQYCTTDFCNNRYVVNRCA
modifications: Ci, Cii and Ciii cysteines covalently bound to TBMT scaffold

This test concerns the target T1, COVID-19 nucleocapsid protein (N-protein) (severe acute respiratory syndrome …, UniProt P0DTC9 1-419).
T1 construct: also called nucleocapsid protein (N-protein) of severe acute respiratory syndrome coronavirus 2 (SARS-CoV-2)
As to the kind of experiment: bio-layer interferometry (BLI).
The term Kd denotes the concentration at which binding is half-saturated. For B1, binding was put at a Kd of 4270 nM.

In the case of B2, binding was characterised by a dissociation constant (Kd) of 1740 nM. This Kd is about 2.5-fold lower than that of the molecule before.

B3 gave a Kd of 1010 nM.

Molecule B4 returned a Kd of 2450 nM.

For the molecule B5, the Kd was 56.3 nM. This Kd lies about 44-fold lower than the previous one.

For B6, the Kd worked out at 1790 nM.

On to B7, for which binding was put at a Kd of 728 nM.

For the molecule B8, the Kd is 225 nM.

Turning to B9, the affinity, expressed as Kd, was 28.1 nM.

In the case of B10, binding was characterised by a dissociation constant (Kd) of 1540 nM.

In turn, B11 yielded a Kd of 321 nM. This Kd is about 4.8-fold lower than that of the molecule before.

B12 yielded a Kd of 36.9 nM.

As to B13, the dissociation constant Kd was determined as 27.9 nM.

With B14, binding was characterised by a dissociation constant (Kd) of 1050 nM.

Turning to B15, the Kd was found to be 1240 nM.

B16: the Kd worked out at 72.8 nM. Compared with the last molecule, the Kd is about 17-fold lower.

The molecule B17 yielded a dissociation constant Kd of 29.3 nM.

B18 came in with a Kd of 8040 nM. Compared with the last molecule, the Kd is about 270-fold higher.

With B19, the affinity, expressed as Kd, was 1110 nM.

With B20, the Kd stood at 2080 nM.

As for B21, the Kd came to 1340 nM.

On to B22, for which the dissociation constant Kd worked out at 805 nM. Compared with the last molecule, the Kd is about 1.7-fold lower.

Consider B23, for which the affinity, expressed as Kd, was 10.6 nM.

The molecule B24 came in with a Kd of 20.6 nM. This Kd lies about 1.9-fold higher than the previous one.

Molecule B25 showed a Kd of 40.2 nM.

As to B26, the Kd is 331 nM.

B27 displayed a Kd of 43000 nM.

B28 registered a dissociation constant (Kd) of 442 nM. Against the preceding molecule, the Kd is about 97-fold lower.

The molecule B29 had a Kd of 1030 nM.

As to B30, the affinity, expressed as Kd, was 16.6 nM.

B31: binding was characterised by a dissociation constant (Kd) of 10.1 nM. This Kd lies about 1.6-fold lower than the previous one.

As to B32, the Kd is 2600 nM. This Kd is about 260-fold higher than that of the molecule before.

On to B33, for which the Kd amounted to 108 nM.

In turn, B34 registered a Kd of 263 nM.

Molecule B35 showed a Kd of 1730 nM.

For the molecule B36, binding was put at a Kd of 22.2 nM.

Take B37: the Kd was determined as 19.7 nM.

B38 had a Kd of 1660 nM.

In turn, B39 showed a Kd of 79.7 nM.

B40 displayed a Kd of 797 nM.

B41 gave a Kd of 63.8 nM.

Regarding B42, the Kd worked out at 9.7 nM.

Regarding B43, binding was characterised by a dissociation constant (Kd) of 27.6 nM.

B44 registered a Kd of 11.8 nM.

As for B45, binding was characterised by a dissociation constant (Kd) of 40300 nM.

For the molecule B46, the affinity, expressed as Kd, was 41.7 nM.

Turning to B47, the affinity, expressed as Kd, was 64.2 nM.

In turn, B48 had a Kd of 22.3 nM.
